The subject of this test is C3H/He mouse. As to the kind of experiment: Application to mouse after induction of growing stage, with hypodermic FGF-5 injection; shapes and sizes of hair follicles in skin slices. Format: in vivo. As to conditions: FGF-5 5 μg hypodermically for 7 days; vs phosphate-buffered saline injected group. The protocol: The hair on the back of a C3H/He mouse (purchased from Japan SLC, Inc.) of an age of 8 weeks whose hair cycle was in the resting stage was pulled out to induce the growing stage. For 7 days from the day following the induction, FGF-5 of 5 μg was hypodermically injected at the same place every time, and around the injected place, the plant extracts from rose fruit, etc. (50% ethanol solutions), “tea extract” and “green tea extract” described in Example 1 were each further applied in an amount of 0.02 ml/cm^2 once a day. To a mouse of a control group, 50% ethanol was applied once a day in the same manner. Further, as a control to the FGF-5 hypodermic injection group, a mouse group wherein a phosphate-buffered saline solution was injected, was prepared.
On the day following the final application, the mouse was killed by dislocation of cervical vertebrae, and the skin at the applied place was taken. The skin thus taken was subjected to fixation with a 10% formalin aqueous solution, then treatment with an ethanol dehydration series, cleaning with xylene and embedding with paraffin. Using a microtome (available from Yamato), the skin was sliced in such a direction that the hair follicle from the top to the bottom could be completely visible, to prepare a skin slice of 4 μm. The resulting skin slice was extended on a silane-coated slide glass (available from Matsunami). […]

B1: FGF-5: Fibroblast growth factor 5, a cytokine that inhibits hair growth; injected hypodermically as challenge agent (protein, UniProt P12034 21-268, looked up)
Fibroblast growth factor 5: HGEKRLAPKGQPGPAATDRNPRGSSSRQSSSSAMSSSSASSSPAASLGSQGSGLEQSSFQWSPSGRRTGSLYCRVGIGFHLQIYPDGKVNGSHEANMLSVLEIFAVSQGIVGIRGVFSNKFLAMSKKGKLHASAKFTDDCKFRERFQENSYNTYASAIHRTEKTGREWYVALNKRGKAKRGCSPRVKPQHISTHFLPRFKQSEQPELSFTVTVPEKKKPPSPIKPKIPLSAPRKNTNSVKYRLKFRFG
Consider B1, for which the “growth of hair follicles after hypodermic FGF-5 injection” value was “growth of the hair follicles was inhibited more than that in the group wherein a phosphate-buffered saline solution had been injected”.

The record behind these values is patent US20070190075A1, “Hair growth stimulant composition” (Advangen, Inc. c/o National Institute of Advance Science …, priority 2003, published 2007).
